Test results taken from the DeepSol protein solubility set.

Experiment: soluble on expression in E. coli; label from the status in PepcDB or PDB records

Sequence	soluble on expression in E. coli
MKDFNQRFRDLHKLRQRARKENHEQVVEEDRRSKLPKNHEAKKERDQWQVKELQDRKAAEDKGLDYERVRSLEMSADVTEKLEQKRKRKKNPDQGFTSYEDMTLRQHTRLTAALDPDLDSYKKMRECVGGEQFYPTADTLIHGNHYPTTAAMDKLTKDVHGQVKRREQYHRRRLYDPDAPIDYINEKNKKFNKKLDKYYGKYTEDIKDDLERGTAI	not soluble
MRIRRRDEKENQEYKKGLWTVEEDNILMDYVLNHGTGQWNRIVRKTGLKRCGKSCRLRWMNYLSPNVNKGNFTEQEEDLIIRLHKLLGNRWSLIAKRVPGRTDNQVKNYWNTHLSKKLVGDYSSAVKTTGEDDDSPPSLFITAATPSSCHHQQENIYENIAKSFNGVVSASYEDKPKQELAQKDVLMATTNDPSHYYGNNALWVHDDDFELSSLVMMNFASGDVEYCL	not soluble
MVTFMITSALHRAADWAKSVFSSAALGDPRRTARLVNVAAQLAKYSGKSITISSEGSKAAQEGAYRFIRNPNVSAEAIRKAGAMQTVKLAQEFPELLAIEDTTSLSYRHQVAEELGKLGSIQDKSRGWWVHSVLLLEATTFRTVGLLHQEWWMRPDDPADADEKESGKWLAAAATSRLRMGSMMSNVIAVCDREADIHAYLQDKLAHNERFVVRSKHPRKDVESGLYLYDHLKNQPELGGYQISIPQKGVVDKRGKRKNRPARKASLSLRSGRITLKQGNITLNAVLAEEINPPKGETPLKWLLLTSEPVESLAQALRVIDIYTHRWRIEEFHKAWKTGAGAERQRMEEPDNLERMVSILSFVAVRLLQLRESFTPPQALRAQGLLKEAEHVESQSAETVLTPDECQLLGYLDKGKRKRKEKAGSLQWAYMAIARLGGFMDSKRTGIASWGALWEGWEALQSKLDGFLAAKDLMAQGIKIG	soluble
MSLSEAGYPRKVMQHAEELHERILSFDSRITVPLDFGTTGNEVDKDGPGQLDLVKAGRGRLSGAALAIFGWPEMWNGPNAPHKPTPGFVDEARHQQEIRYKILTGMVRDFPNQVGIAYSPEDFRRLAMEGKFAIVMSMLNAYPLGDDLSQLDKWAARGVRMFGFSYVGNNDWADSSRPLPFFNDSPDALGGLSPLGKQAVERLNDLGVIIDVSQMSTKALEQVAALSRAPIVASHSAPRALVDIKRNLSDHEMQLIKDSGGVIQVVGFPAYLRPLSKPTLDKLDALRARFDLPPLEGLDYALMPGDPIITIWPEQRFGEYASALYGILEEEPKAGLKELVDAIDYTVKKVGIDHVGISSDFNDGGGVDGWKDVSEIRNVTAELITRGYSDADIAKLWGGNFLRAWGEVQNAPSRQPPPKGIITITTDPNSSSVDKLAAALEHHHHHH	soluble
FEKVYHLKLSIKGITPQIWRRIQVPENYTFLDLHKAIQAVMDWEDYHLHEFEMVNPKTGMLDKIGAEGDDFDAFGGPLVSEKKAKLSDYFTLENKEALYTYDFGDNWQVKVRLEKILPRKEGVEYPICTAGKRAAVPEDSGGVWGYEEMLEVLKDSEHEEYEDTVLWLGDDFDPEYFDPKDVS	not soluble
MGSDKIHHHHHHMNKDIPVLIFSDKLNINGDYPIIKIINEQSLPYILKHEIGGLKDWFKSRVIPTNRNHLEKLIESLQFEKKPTALDYLKLNNGFSLNDSYWIKPLDISSMYPKDLCWDKYNLYDNKFEEALGLVTFFGNNTSLGGTVNTPKVSSPELTTQGVMNKAWRRTDNKLLLYKRGNIGAANLDKEHFSESIASEIGKILGLNCIPYWTDKWHNQNCSVCEIFTNKDKGYLPFRYFLEAIEPNRKKWGFANVIEWIPKEFKQDFLDMIVFDYIIENRDRHLGNFGFIIDNNTQELLSFAPLFDQGYSLMANALEEDFNKDLKEYSESHPSFVLENKDLAKYVIERNKQRYKGFTKTLRLKIDDINWFNCPNWYKEGIKKLIFTRCEVINSI	not soluble
EELEERLVEWIVVQCGPDVGRPDRGRLGFQVWLKNGVILSKLVNSLYPEGSKPVKVPENPPSMVFKQMEQVAQFLKAAEDYGVIKTDMFQTVDLYEGKDMAAVQRTLMALGSLAVTKNDGNYRGDPNWFMK	soluble
MKNKNDQHLRLQQQIIHYRSEAASCRQQVQQLEAELAKEKMRSAYLKEKLREAETTNVETYKKKIAALERQLLLCEIALEETRYNTSKETQTPAFERAAAVSALFHYSVVVPTHLDEEELTIIGDFIIRNHGTAPLHHLIVCLRLSPPKTAVLSGKIVLPNSGRAEQEALISNSAESWTFTQENWREKVRQSGEYWLAPLYDAPLEPGEERRFSQFEITVPPSSNARSLTVDGFVYCAELPKGVPAANHIAIQW	not soluble
MGSDKIHHHHHHMLSMAGQVIAEDTAKAIEAAVHHEARLERDKARDGSRHPEAILNFFEVAPGQRVLDLFSGGGYYSELLARVVGEQGSVLVHNNQAYLPFAKEDLAERHYQERLPNAEVIISEADELQLPAASFDRIFFILGFHDTYYHEPGWPAIDRERLLQQMFTSLKPGGIVAIIDHDAAPESDTDTAHELHRLAKRHVVDAMEAAGFKLQGSLAVLENPEDKLTLSAFDEAVRGKTSRYVLMFVKPKL	not soluble
MGSDKIHHHHHHMDIYEKYGLKPVINADGKMTILGVSQVSDQVAAAQKQGAQNFFEMAELTVQTGRYLADLIGSEDALIVNSASAGIAQVLAGIIGRGNAYHVTHPYTTQITQREVIMPLGHDVDYGAPVDVMLAVAGAQPVLAGYANRCTAEQLAMQITPQTVAILYIKSHHTVQKSMLTIADALQVAHDHHLPLVLDAAAEGDLRRYLQLGVDVVIYSGAKAISGPASGLVLGRQTYVEWARQQNYGIGRAMKIGKENILGLVAAVEQYLTTGPESGASMKARLAPFIAELQTLPNVQVEMVQDGAGRDIFRASVRIAEAAKICQALRQGRPAIYPREYRVNEGLIEFDIRALTSAEMTQIVERLRTIIEEESTCN	not soluble
MTHYKYYEANVETNQVLVLLHGFLSDSRTYYNHIDKYTDICHVITIDLPGHGEDQSSMDETWNFDYITTLLDRILDKYKDKSITLFGYSMGGRVALYYAINGHIPISNLILESTSPGIKEEANQLERRLVDDARAKVLDIAGIELFVNDWEKLPLFQSQLELPVEIQHQIRLQRLSQSPQKMAKALRDYGTGQMPNLWPRLKEIKVPTLILAGEYDEKFVQIAKKMANLIPNSKCKLISATGHTIHVEDSDEFDTMILGFLKEEQND	not soluble
GAKNYYDITLALAGICQSARLVQQLAHQGHCDADALHVSLNSIIDMNPSSTLAVFGGSEANLRVGLETLLGVLNASSRQGLNAELTRYTLSLMVLERKLSSAKGALDTLGNRINGLQRQLEHFDLQSETLMSAMAAIYVDVISPLGPRIQVTGSPAVLQSPQVQAKVRATLLAGIRAAVLWHQVGGGRLQLMFSRNRLTTQAKQILAHLTPEL	soluble
MPLELTQSRVQKIWVPVDHRPSLPRSCGPKLTNSPTVIVMVGLPARGKTYISKKLTRYLNWIGVPTKVFNVGEYRREAVKQYSSYNFFRPDNEEAMKVRKQCALAALRDVKSYLAKEGGQIAVFDATNTTRERRHMILHFAKENDFKAFFIESVCDDPTVVASNIMEVKISSPDYKDCNSAEAMDDFMKRISCYEASYQPLDPDKCDRDLSLIKVIDVGRRFLVNRVQDHIQSRIVYYLMNIHVQPRTIYLCRHGENEHNLQGRIGGDSGLSSRGKKFASALSKFVEEQNLKDLRVWTSQLKSTIQTAEALRLPYEQWKALNEIDAGVCEELTYEEIRDTYPEEYALREQDKYYYRYPTGESYQDLVQRLEPVIMELERQENVLVICHQAVLRCLLAYFLDKSAEEMPYLKCPLHTVLKLTPVAYGCRVESIYLNVESVCTHRERSEDAKKGPNPLMRRNSVTPLASPEPTKKPRINSFEEHVASTSAALPSCLPPEVPTQLPGQNMKGSRSSADSSRKH	soluble
MGSDKIHHHHHHMAEQPLIGKTILTTRAAGQSSPFAAQLRAAGAAVIEMPTLEIGPPSSWLPLDEAIAAIADFDWLILASANAVEAVQQRLAAQQKSWSDVPCAIAVVGQKTAQVLAAQGGKADYIPPEFIAESLVEHFPQPVAGQRLLFPRVETGGREQITQALQSQGAIVVEVPAYESRCPSQIPDDALIALRQAHLNLISFTSSKTVRNFCQLMASNLGVDWSARISGVAIASIGPQTSITCQELLGRVEVEAQEYTLDGLLLAIEQWARQTT	not soluble
MGSDKIHHHHHHMEDIIVVENLVKKFGDFEAVKGVSFSVKKGEIFAFLGPNGAGKTTTIHMLTTLLKPTSGKAWVAGHDVLKEPREVRRKIGIVFQDQSLDRELTAYENMYIHGKIYGYGGEKLKKRILELLEFVELLEFKDKPVKTFSGGMARRLEIARSLIHEPEVLFLDEPTIGLDPHTRAHMWEYISKMKKEHNMTIFLTTHYMDEAEQLADRVAIIDHGKIIALGTPTELKRMVGKEIIYVRFSEAVECLEGDFIESCRKLPDGRLELNVEDSGRAIPKIFELAQQKGLKIEEITYHKPTLNDVFLHLTGRELREEGPENSFKTMARMRMRMRR	not soluble
MAGRPKDPTINKKIYTEIQRLLETTHFRDITIDQISENTGISKATIYRRWKDKSSIIMSAFIEQSQYIAIHNQDNLYDDLFQFLVKIKDIYKTKLGSAVIEILISHQQMEARETFMTNYFNHNRKVLKEIVRKHIQEEEQDLFIDLIFSPIYFNILIKPETLDENYIKKMLNQVLRIYH	not soluble
MGSDKIHHHHHHMTIDNQTGLVLEGGGMRGVFTCGVLDYLMDHDIRFPYTIGVSAGACNGLSYMSRQRGRAKYSNIDLLEKYHYIGLKHLLKKRNILDFDLLFTEFPEHILPYDYQAYFDSPERYVMVTTNCLTGEADYFEEKKDKNRVIDIVRASSSLPFVCPIAYVDGIPMLDGGIVDSIPLQRAIHDGYRNNVVVLTRNRGYRKENKDIRIPPFVYRKYPKMREALSRRCAAYNAQLEMVERMEEEGDILVIRPQKPVVVDRIERDIQKLTDLYEEGYECAKRQFEVL	not soluble
EQMEGMLCRKQEMEAFGKKAANRSWQNVYCVLRRGSLGFYKDAKAASAGVPYHGEVPVSLARAQGSVAFDYRKRKHVFKLGLQDGKEYLFQAKDEAEMSSWLRVVNAAIA	soluble
MAHHHHHHMLRRTSFNFTGRAMISRGSPEWSHRLDLKKGKKTTMMHKLGTSKPNNALQYAQMTLHDLTEWCLAYSPWPLTFGLACCAVEMMHAYASRYDLDRFGIVPRPTPRQAEIIIVSGTVTNKMAPILRNIYVQMVNPKWVISMGSCANGGGYYHFSYAVLRGCERAIPVDFWIPGCPPSAESLVFCLHTLQKKIRWHEIQKYSVRD	not soluble
VKIFERFRKACDEFFKKKGEFFKLLKEGMNANLEKKKALCEKAESLKDSTEWKETAEILTKLQKEWKTIGPVSKKYS	not soluble
MLSFVIPAHDEAALIGDTLQCLHACAQAMQLDHEVIVVADACEDATAAIARSHGAQVLEVLEVQLRHIAATRNAGAQAAQGEHLLFLDADTSINPQVVGAALAALDAGAVGGGARVHLQGKRVWSERVAQAVFGWFFRVSGIAPGCFLFCTRAAFVSAGGFDTRYYAGEDVALSRALARCGRFVILRQTVHTSDRKLRSFSKREHLGLLLRFLWRGRRMLQTRDALGFWYQRRRLEHHHHHH	not soluble
MGSDKIHHHHHHKSISNKLVVFDDKEQVIQYSSNSIPVKIELYSKRWGKTSITYNNSLKEFWDIVESMPRSKNFYGSTKIENSPNDIIGTIFYLNGKRSTMCLNHNLKIDDSYYGGERGYAYINRLRNYINDIMCTPSMLASIVNDKNKVIIEDKLSEASKCGSNDKTLIKNEITKLRRISNNEKLQKTITSKGKLNYHIKIYMENSNGSNINLSKIKQDNYDIISISVYENNCAVIRDYGNDTVDTFCMEGNLTNVCKSILKR	not soluble
DYLRQVFPHYKVQKITLNAGFTCPNRDGLKGWGGCTYCNNQTFSPAFAMKDRSVSEQLRDGIAFFARKYPHMKYLAYFQAYTNTYGEQAEIIRKYEEALNYYDVVGIIIGTRPDCMPDSLLSYLKDLSERVFVLVEYGVESTLDATLRRVNRGHLWSDSMAAIERTAKTGLPIGVHLILGLPGESREDILRHADKISALPVTTLKLHQLQIIRGTAMAKEYAESPSD	not soluble
